According to FireProtDB:
Values joined by “and” are separate entries in the source; they are usually repeats but may differ in a detail not shown here. Identical values can stand only once.

Conditions: whole UniProt chain shown; for Tm / unfolding enthalpy (calorimetric) / unfolding enthalpy (van 't Hoff) / heat capacity change of unfolding: Thermal; for unfolding free energy: 25 °C, GdnHCl
[1] = Streptococcus phage Cp-1, pH 7, DSC, phosphate 20 mM, reversible: no
[2] = Streptococcus phage Cp-1, pH 7, DSC, phosphate 20 mM, transition: 3, reversible: no
[3] = Saccharolobus solfataricus (strain ATCC 35092 / DSM 1617 / JCM 11322 / P2), pH 7, DSC, Unknown, reversible: yes
[4] = Saccharomyces cerevisiae (strain ATCC 204508 / S288c), pH 8.5, DSC, Tris 0.05 M, reversible: no
[5] = Sulfolobus acidocaldarius (strain ATCC 33909 / DSM 639 / JCM 8929 / NBRC 15157 / NCIMB 11770), pH 7, DSC, Acetate 10 mM, reversible: Yes
[6] = Sulfolobus acidocaldarius (strain ATCC 33909 / DSM 639 / JCM 8929 / NBRC 15157 / NCIMB 11770), pH 7, DSC, Unknown, reversible: yes
[7] = Staphylococcus aureus, pH 7, CD, NaPP 0.1 M, reversible: yes
[8] = Staphylococcus aureus, pH 7, Fluorescence, NaPP 0.1 M, reversible: yes

B1: Lysozyme wild type, P15057 (protein)
chain: MVKKNDLFVDVSSHNGYDITGILEQMGTTNTIIKISESTTYLNPCLSAQVEQSNPIGFYHFARFGGDVAEAEREAQFFLDNVPMQVKYLVLDYEDDPSGDAQANTNACLRFMQMIADAGYKPIYYSYKPFTHDNVDYQQILAQFPNSLWIAGYGLNDGTANFEYFPSMDGIRWWQYSSNPFDKNIVLLDDEEDDKPKTAGTWKQDSKGWWFRRNNGSFPYNKWEKIGGVWYYFDSKGYCLTSEWLKDNEKWYYLKDNGAMATGWVLVGSEWYYMDDSGAMVTGWVKYKNNWYYMTNERGNMVSNEFIKSGKGWYFMNTNGELADNPSFTKEPDGLITVA
With B1 the Tm [1] was 42.9 °C, the “unfolding enthalpy (calorimetric)” value [1] was 109 kcal/mol and the “unfolding enthalpy (van 't Hoff)” value [1] was 232 kcal/mol. The Tm [2] was 43.5 °C, the “unfolding enthalpy (calorimetric)” value [2] was 143 kcal/mol and the “unfolding enthalpy (van 't Hoff)” value [2] was 100 kcal/mol.

B2: DNA-binding protein 7d wild type, P39476 (protein)
chain: MATVKFKYKGEEKEVDISKIKKVWRVGKMISFTYDEGGGKTGRGAVSEKDAPKELLQMLEKQKK
Work on B2 yielded a Tm (Saccharolobus solfataricus (strain ATCC 35092 / DSM 1617 / JCM 11322 / P2), pH 4.5, NMR, Unknown) of 60.9 °C, an unfolding free energy (Saccharolobus solfataricus (strain ATCC 35092 / DSM 1617 / JCM 11322 / P2), pH 6.1, Fluorescence, MES 50 mM, NaCl 100 mM) of 5.93 kcal/mol and a Tm [3] of 99 °C. The “heat capacity change of unfolding” value [3] was 0.75 kcal/mol/K and the “unfolding enthalpy (calorimetric)” value [3] was 65 kcal/mol.

B3: Triosephosphate isomerase wild type, P00942 (protein)
chain: MARTFFVGGNFKLNGSKQSIKEIVERLNTASIPENVEVVICPPATYLDYSVSLVKKPQVTVGAQNAYLKASGAFTGENSVDQIKDVGAKWVILGHSERRSYFHEDDKFIADKTKFALGQGVGVILCIGETLEEKKAGKTLDVVERQLNAVLEEVKDWTNVVVAYEPVWAIGTGLAATPEDAQDIHASIRKFLASKLGDKAASELRILYGGSANGSNAVTFKDKADVDGFLVGGASLKPEFVDIINSRN
With B3 the Tm [4] was 59 °C, the “heat capacity change of unfolding” value [4] was 11.7 kcal/mol/K and the “unfolding enthalpy (calorimetric)” value [4] was 318 kcal/mol.

B4: Malate dehydrogenase, cytoplasmic wild type, P11708 (protein)
chain: MSEPIRVLVTGAAGQIAYSLLYSIGNGSVFGKDQPIILVLLDITPMMGVLDGVLMELQDCALPLLKDVIATDKEEIAFKDLDVAILVGSMPRRDGMERKDLLKANVKIFKCQGAALDKYAKKSVKVIVVGNPANTNCLTASKSAPSIPKENFSCLTRLDHNRAKAQIALKLGVTSDDVKNVIIWGNHSSTQYPDVNHAKVKLQAKEVGVYEAVKDDSWLKGEFITTVQQRGAAVIKARKLSSAMSAAKAICDHVRDIWFGTPEGEFVSMGIISDGNSYGVPDDLLYSFPVTIKDKTWKIVEGLPINDFSREKMDLTAKELAEEKETAFEFLSSA
For B4, the unfolding free energy (Sus scrofa, pH 7.5, Fluorescence, TEA 50 mM, MgCl2 20 mM, transition: 3) was 5.9 kcal/mol and 6.4 kcal/mol.

B5: NAD(P)H-dependent FMN reductase LOT6 wild type, Q07923 (protein)
chain: MKVGIIMGSVRAKRVCPEIAAYVKRTIENSEELIDQKLKIQVVDLQQIALPLYEDDDELIPAQIKSVDEYADSKTRSWSRIVNALDIIVFVTPQYNWGYPAALKNAIDRLYHEWHGKPALVVSYGGHGGSKCNDQLQEVLHGLKMNVIGGVAVKIPVGTIPLPEDIVPQLSVHNEEILQLLASCIETTRNK
Protein B5 has a Tm (Saccharomyces cerevisiae (strain ATCC 204508 / S288c), pH 7.5, CD, Tris-HCl 100 mM, reversible: No) of 60.2 °C.

B6: Tryptophan synthase alpha chain wild type, P00929 (protein)
chain: MERYENLFAQLNDRREGAFVPFVTLGDPGIEQSLKIIDTLIDAGADALELGVPFSDPLADGPTIQNANLRAFAAGVTPAQCFEMLALIREKHPTIPIGLLMYANLVFNNGIDAFYARCEQVGVDSVLVADVPVEESAPFRQAALRHNIAPIFICPPNADDDLLRQVASYGRGYTYLLSRSGVTGAENRGALPLHHLIEKLKEYHAAPALQGFGISSPEQVSAAVRAGAAGAISGSAIVKIIEKNLASPKQMLAELRSFVSAMKAASRA
Protein B6 has an unfolding free energy (Salmonella typhimurium (strain LT2 / SGSC1412 / ATCC 700720), pH 7, CD, Potassium phosphate 0.01 M, reversible: yes) of 9.7 kcal/mol, a Tm (Salmonella typhimurium (strain LT2 / SGSC1412 / ATCC 700720), pH 7.8, Enzyme activity, sodium N/N-bis(2-hydroxyethyl)glycine 0.05 M) of 46 °C and a Tm (Salmonella typhimurium (strain LT2 / SGSC1412 / ATCC 700720), pH 9, DSC, Sodium tetraborate 1 mM, reversible: yes(>70%)) of 47.6 °C.

B7: DNA-binding protein 7d wild type, P13123 (protein)
chain: MVKVKFKYKGEEKEVDTSKIKKVWRVGKMVSFTYDDNGKTGRGAVSEKDAPKELLDMLARAEREKK
For B7, the Tm (Sulfolobus acidocaldarius (strain ATCC 33909 / DSM 639 / JCM 8929 / NBRC 15157 / NCIMB 11770), pH 4, DSC, Potassium acetate 0.05 M, KCl 0.3 M, reversible: yes) was 86.8 °C, the Tm (Sulfolobus acidocaldarius (strain ATCC 33909 / DSM 639 / JCM 8929 / NBRC 15157 / NCIMB 11770), pH 6, DSC, KH2PO4 0.01 M, KCl 0.1 M, reversible: yes) was 99.4 °C and the Tm [5] was 90.7 °C. For the same protein, the “heat capacity change of unfolding” value [5] was 0.71 kcal/mol/K, the “unfolding enthalpy (calorimetric)” value [5] was 58.5 kcal/mol and the Tm [6] was 90.7 °C. The “heat capacity change of unfolding” value [6] was 0.71 kcal/mol/K and the “unfolding enthalpy (calorimetric)” value [6] was 58.5 kcal/mol.

B8: Dihydroneopterin aldolase wild type, P56740 (protein)
chain: MQDTIFLKGMRFYGYHGALSAENEIGQIFKVDVTLKVDLSEAGRTDNVIDTVHYGEVFEEVKSIMEGKAVNLLEHLAERIANRINSQYNRVMETKVRITKENPPIPGHYDGVGIEIVRENK
With B8 the Tm [7] was 42.5 °C, the “unfolding enthalpy (van 't Hoff)” value [7] was 141 kcal/mol and the Tm [8] was 43.5 °C. For the same protein, the “unfolding enthalpy (van 't Hoff)” value [8] was 151 kcal/mol.
